Assay results from patent US20240270821A1, “GIP/GLP1/GCG TRI-RECEPTOR AGONISTS AND USES THEREOF” (priority 2023, published 2024).

How the values were obtained:
Assay in all cases: cell-based or functional assay
hGLP-1R = hGLP-1R (Homo sapiens, UniProt P43220)
[1] = target: human glucagon receptor (human) (UniProt P47871)
[2] = target: T1, human GIP receptor (human) (UniProt P48546)
T1 sequence (looked up): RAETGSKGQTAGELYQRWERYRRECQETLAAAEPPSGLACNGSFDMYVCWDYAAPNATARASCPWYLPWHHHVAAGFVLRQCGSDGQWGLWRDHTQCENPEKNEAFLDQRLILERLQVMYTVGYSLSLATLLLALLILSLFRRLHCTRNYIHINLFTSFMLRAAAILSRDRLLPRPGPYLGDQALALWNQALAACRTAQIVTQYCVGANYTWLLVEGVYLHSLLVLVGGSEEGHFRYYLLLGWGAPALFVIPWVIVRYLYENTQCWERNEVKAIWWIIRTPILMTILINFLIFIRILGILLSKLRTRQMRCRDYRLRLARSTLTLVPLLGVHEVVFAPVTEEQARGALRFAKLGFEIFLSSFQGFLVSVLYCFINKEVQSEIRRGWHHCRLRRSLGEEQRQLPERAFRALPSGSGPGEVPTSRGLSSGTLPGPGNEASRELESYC

Chain of hGLP-1R (P43220 24-463): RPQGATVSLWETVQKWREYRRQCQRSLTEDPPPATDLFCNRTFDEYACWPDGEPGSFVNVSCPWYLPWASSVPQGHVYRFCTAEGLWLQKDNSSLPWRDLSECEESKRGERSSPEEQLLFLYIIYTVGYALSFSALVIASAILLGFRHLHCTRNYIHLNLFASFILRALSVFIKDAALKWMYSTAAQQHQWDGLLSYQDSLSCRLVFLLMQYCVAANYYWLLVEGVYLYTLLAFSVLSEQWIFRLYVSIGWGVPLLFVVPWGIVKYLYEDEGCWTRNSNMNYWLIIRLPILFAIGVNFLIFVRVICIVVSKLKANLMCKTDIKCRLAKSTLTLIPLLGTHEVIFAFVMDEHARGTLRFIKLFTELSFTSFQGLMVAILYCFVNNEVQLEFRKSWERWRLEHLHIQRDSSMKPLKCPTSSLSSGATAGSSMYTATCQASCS
Chain of human glucagon receptor (human) (P47871 26-477): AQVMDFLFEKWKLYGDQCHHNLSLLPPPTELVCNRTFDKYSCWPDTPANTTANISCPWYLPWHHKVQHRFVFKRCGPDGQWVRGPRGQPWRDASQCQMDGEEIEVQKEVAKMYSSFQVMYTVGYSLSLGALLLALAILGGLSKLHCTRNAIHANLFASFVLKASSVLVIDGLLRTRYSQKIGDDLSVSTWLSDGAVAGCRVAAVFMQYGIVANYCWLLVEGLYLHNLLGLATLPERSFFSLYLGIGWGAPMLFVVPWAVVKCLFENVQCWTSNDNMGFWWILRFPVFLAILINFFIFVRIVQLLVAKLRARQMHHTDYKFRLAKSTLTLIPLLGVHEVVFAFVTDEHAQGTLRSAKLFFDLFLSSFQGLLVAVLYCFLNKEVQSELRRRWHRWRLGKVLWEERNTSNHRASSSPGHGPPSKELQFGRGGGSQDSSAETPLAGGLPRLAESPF

B1: Example 784 (peptide)
chain: YXQGTFTSDFSQXLDKKAQXAFIEYLLEXGPSSGAPPPSGS
modifications: synthetic construct; SITE 2: note = 2-Aminoisobutyric Acid; SITE 13: note = alpha-methyl-leucine; SITE 17: note = Lysine is chemically modified through conjugation of the epsilon-amino group of the Lysine side chain with (gamma-Glu)2-CO-(CH2)16-CO2H; SITE 20: note = 2-Aminoisobutyric Acid; SITE 29:
- Relative cAMP EC50 (hGLP-1R): 2.09 nM
- cAMP Rel EC50, nM (1% HSA) (hGLP-1R): 284 nM
- Relative cAMP EC50 [1]: 5.21 nM
- cAMP Rel EC50, nM (1% HSA) [1]: 711 nM
- Relative cAMP EC50 [2]: 0.0587 nM
- cAMP Rel EC50, nM (1% HSA) [2]: 11.8 nM

B2: Example 800 (peptide)
chain: YXQGTFTSDFSXXLDKKAQXAFIEYLIEXGPSSGAPPPSGS
modifications: synthetic construct; SITE 2: note = 2-Aminoisobutyric Acid; SITE 12: note = (S)-2,3-diaminopropanoic acid; SITE 13: note = alpha-methyl-leucine; SITE 17: note = Lysine is chemically modified through conjugation of the epsilon-amino group of the Lysine side chain with (2-[2-(2-Amino-ethoxy)-ethoxy]-a)
- Relative cAMP EC50 (hGLP-1R): 0.486 nM
- cAMP Rel EC50 (1% HSA) (hGLP-1R): 164 nM
- Relative cAMP EC50 [1]: 21 nM
- cAMP Rel EC50 (1% HSA) [1]: 2500 nM
- Relative cAMP EC50 [2]: 0.283 nM
- cAMP Rel EC50 (1% HSA) [2]: 40.2 nM

B3: Example 771 (peptide)
chain: YXQGTFTSDFSXXLDKKAQXAFIEYLLEGGPSSGXPPPGGS
modifications: not fully specified; synthetic construct; SITE 2: note = 2-Aminoisobutyric Acid; SITE 12: note = L-ornithine; SITE 13: note = alpha-methyl-leucine; SITE 17: note = Lysine is chemically modified through conjugation of the epsilon-amino group of the Lysine side chain with (gamma-Glu)2-CO-(CH2)16-CO2H; SITE 20: note = 2-Am
- Relative cAMP EC50 (hGLP-1R): 4.38 nM
- cAMP Rel EC50, nM (1% HSA) (hGLP-1R): 665 nM
- Relative cAMP EC50 [1]: 5.05 nM
- cAMP Rel EC50, nM (1% HSA) [1]: 955 nM
- Relative cAMP EC50 [2]: 0.232 nM
- cAMP Rel EC50, nM (1% HSA) [2]: 44.2 nM

B4: Example 797 (peptide)
chain: YXQGTFTSDFSKXLDKKAQXAFIEYLIEXGPSSGAPPPSGS
modifications: synthetic construct; SITE 2: note = 2-Aminoisobutyric Acid; SITE 13: note = alpha-methyl-leucine; SITE 17: note = Lysine is chemically modified through conjugation of the epsilon-amino group of the Lysine side chain with (2-[2-(2-Amino-ethoxy)-ethoxy]-acetyl)-(gamma-Glu)-CO-(CH2) 16-CO2H; SITE 20: n
- Relative cAMP EC50 (hGLP-1R): 0.449 nM
- cAMP Rel EC50 (1% HSA) (hGLP-1R): 102 nM
- Relative cAMP EC50 [1]: 3.78 nM
- cAMP Rel EC50 (1% HSA) [1]: 963 nM
- Relative cAMP EC50 [2]: 0.0781 nM
- cAMP Rel EC50 (1% HSA) [2]: 16.7 nM

B5: Example 787 (peptide)
chain: YXQGTFTSDFSQXLDKKAQXAFIEYLLEXGESSGAPPPSGS
modifications: synthetic construct; SITE 2: note = 2-Aminoisobutyric Acid; SITE 13: note = alpha-methyl-leucine; SITE 17: note = Lysine is chemically modified through conjugation of the epsilon-amino group of the Lysine side chain with (2-[2-(2-Amino-ethoxy)-ethoxy]-acetyl)2-(gamma-Glu)-CO-(CH2 )16-CO2H; SITE 20:
- Relative cAMP EC50 (hGLP-1R): 2.55 nM
- cAMP Rel EC50, nM (1% HSA) (hGLP-1R): 382 nM
- Relative cAMP EC50 [1]: 7.81 nM
- cAMP Rel EC50, nM (1% HSA) [1]: 2060 nM
- Relative cAMP EC50 [2]: 0.0675 nM
- cAMP Rel EC50, nM (1% HSA) [2]: 18.6 nM

B6: Example 780 (peptide)
chain: YXQGTFTSDFSQXLDKKAQXAFIEYLLEAGPSSXAPPPSGT
modifications: no C-terminal amide; synthetic construct; SITE 2: note = 2-Aminoisobutyric Acid; SITE 13: note = alpha-methyl-leucine; SITE 17: note = Lysine is chemically modified through conjugation of the epsilon-amino group of the Lysine side chain with (2-[2-(2-Amino-ethoxy)-ethoxy]-acetyl)-(gamma-Glu)-CO-(CH2) 16-CO2H; SITE 20: n
- Relative cAMP EC50 (hGLP-1R): 1.26 nM
- cAMP Rel EC50, nM (1% HSA) (hGLP-1R): 211 nM
- Relative cAMP EC50 [1]: 4.84 nM
- cAMP Rel EC50, nM (1% HSA) [1]: 1250 nM
- Relative cAMP EC50 [2]: 0.111 nM
- cAMP Rel EC50, nM (1% HSA) [2]: 22.1 nM

B7: Example 772 (peptide)
chain: YXQGTFTSDFSQXLDKKAQXAFIEYLLAGGPSSGAPPPEGS
modifications: synthetic construct; SITE 2: note = 2-Aminoisobutyric Acid; SITE 13: note = alpha-methyl-leucine; SITE 17: note = Lysine is chemically modified through conjugation of the epsilon-amino group of the Lysine side chain with (2-[2-(2-Amino-ethoxy)-ethoxy]-acetyl)-(gamma-Glu)-CO-(CH2) 16-CO2H; SITE 20: n
- Relative cAMP EC50 (hGLP-1R): 1.38 nM
- cAMP Rel EC50, nM (1% HSA) (hGLP-1R): 206 nM
- Relative cAMP EC50 [1]: 15.9 nM
- cAMP Rel EC50, nM (1% HSA) [1]: 1880 nM
- Relative cAMP EC50 [2]: 0.115 nM
- cAMP Rel EC50, nM (1% HSA) [2]: 21.6 nM

B8: Example 788 (peptide)
chain: YXQGTFTSDFSQXLDKKAQXAFIEYLLEXGESSGEPPPSGS
modifications: synthetic construct; SITE 2: note = 2-Aminoisobutyric Acid; SITE 13: note = alpha-methyl-leucine; SITE 17: note = Lysine is chemically modified through conjugation of the epsilon-amino group of the Lysine side chain with (2-[2-(2-Amino-ethoxy)-ethoxy]-acetyl)-(gamma-Glu)-CO-(CH2) 16-CO2H; SITE 20: n
- Relative cAMP EC50 (hGLP-1R): 2.5 nM
- cAMP Rel EC50, nM (1% HSA) (hGLP-1R): 528 nM
- Relative cAMP EC50 [1]: 3.36 nM
- cAMP Rel EC50, nM (1% HSA) [1]: 1420 nM
- Relative cAMP EC50 [2]: 0.0923 nM
- cAMP Rel EC50, nM (1% HSA) [2]: 20.7 nM

B9: Example 774 (peptide)
chain: YXQGTFTSDFSQXLDKKAQXAFIEWLLEGGPSSGAPPPEGS
modifications: synthetic construct; SITE 2: note = 2-Aminoisobutyric Acid; SITE 13: note = alpha-methyl-leucine; SITE 17: note = Lysine is chemically modified through conjugation of the epsilon-amino group of the Lysine side chain with (2-[2-(2-Amino-ethoxy)-ethoxy]-acetyl)-(gamma-Glu)-CO-(CH2) 16-CO2H; SITE 20: n
- Relative cAMP EC50 (hGLP-1R): 1.89 nM
- cAMP Rel EC50, nM (1% HSA) (hGLP-1R): 404 nM
- Relative cAMP EC50 [1]: 13.7 nM
- cAMP Rel EC50, nM (1% HSA) [1]: 2330 nM
- Relative cAMP EC50 [2]: 0.128 nM
- cAMP Rel EC50, nM (1% HSA) [2]: 32.8 nM

B10: Example 794 (peptide)
chain: YXQGTFTSDFSRXLDKKAQXAFIEYLIEGGESSGAPPPSGS
modifications: synthetic construct; SITE 2: note = 2-Aminoisobutyric Acid; SITE 13: note = alpha-methyl-leucine; SITE 17: note = Lysine is chemically modified through conjugation of the epsilon-amino group of the Lysine side chain with (2-[2-(2-Amino-ethoxy)-ethoxy]-acetyl)-(gamma-Glu)-CO-(CH2) 16-CO2H; SITE 20: n
- Relative cAMP EC50 (hGLP-1R): 1.26 nM
- cAMP Rel EC50, nM (1% HSA) (hGLP-1R): 233 nM
- Relative cAMP EC50 [1]: 1.21 nM
- cAMP Rel EC50, nM (1% HSA) [1]: 297 nM
- Relative cAMP EC50 [2]: 0.468 nM
- cAMP Rel EC50, nM (1% HSA) [2]: 68.4 nM

B11: Example 795 (peptide)
chain: YXQGTFTSDFSQXLDKKAQXAFIEYLIEGGESSGAPPPSGS
modifications: synthetic construct; SITE 2: note = 2-Aminoisobutyric Acid; SITE 13: note = alpha-methyl-leucine; SITE 17: note = Lysine is chemically modified through conjugation of the epsilon-amino group of the Lysine side chain with (2-[2-(2-Amino-ethoxy)-ethoxy]-acetyl)-(gamma-Glu)-CO-(CH2) 16-CO2H; SITE 20: n
- Relative cAMP EC50 (hGLP-1R): 0.972 nM
- cAMP Rel EC50, nM (1% HSA) (hGLP-1R): 221 nM
- Relative cAMP EC50 [1]: 1.77 nM
- cAMP Rel EC50, nM (1% HSA) [1]: 566 nM
- Relative cAMP EC50 [2]: 0.345 nM
- cAMP Rel EC50, nM (1% HSA) [2]: 67.3 nM

B12: Example 773 (peptide)
chain: YXQGTFTSDFSQXLDKKAQXAFIEYLLAGGPSSGEPPPSGS
modifications: synthetic construct; SITE 2: note = 2-Aminoisobutyric Acid; SITE 13: note = alpha-methyl-leucine; SITE 17: note = Lysine is chemically modified through conjugation of the epsilon-amino group of the Lysine side chain with (2-[2-(2-Amino-ethoxy)-ethoxy]-acetyl)-(gamma-Glu)-CO-(CH2) 16-CO2H; SITE 20: n
- Relative cAMP EC50 (hGLP-1R): 1.97 nM
- cAMP Rel EC50, nM (1% HSA) (hGLP-1R): 241 nM
- Relative cAMP EC50 [1]: 15.3 nM
- cAMP Rel EC50, nM (1% HSA) [1]: 2260 nM
- Relative cAMP EC50 [2]: 0.0974 nM
- cAMP Rel EC50, nM (1% HSA) [2]: 26.3 nM

B13: Example 767 (peptide)
chain: YXQGTXTSDXXIXLDXKYQXEFIEXLVEGGPSSGAPPPSGS
modifications: synthetic construct; SITE 2: note = 2-Aminoisobutyric Acid; SITE 6: note = alpha-methyl-2-fluoro-L-phenylalanine; SITE 10: note = 3-(4-Pyridyl)-L-alanine; SITE 11: note = alpha-methyl-L-serine; SITE 13: note = alpha-methyl-leucine; SITE 16: note = L-ornithine; SITE 17: note = Lysine is chemically mo
- Relative cAMP EC50 (hGLP-1R): 0.299 nM
- cAMP Rel EC50, nM (1% HSA) (hGLP-1R): 56.8 nM
- Relative cAMP EC50 [1]: 1.13 nM
- cAMP Rel EC50, nM (1% HSA) [1]: 207 nM
- Relative cAMP EC50 [2]: 0.00792 nM
- cAMP Rel EC50, nM (1% HSA) [2]: 1.51 nM

B14: Example 768 (peptide)
chain: YXQGTXTSDXXIXLEXKAQXEFIEXLVEGGPSSGAPPPSGS
modifications: synthetic construct; SITE 2: note = 2-Aminoisobutyric Acid; SITE 6: note = alpha-methyl-2-fluoro-L-phenylalanine; SITE 10: note = 3-(4-Pyridyl)-L-alanine; SITE 11: note = alpha-methyl-L-serine; SITE 13: note = alpha-methyl-leucine; SITE 16: note = L-ornithine; SITE 17: note = Lysine is chemically mo
- Relative cAMP EC50 (hGLP-1R): 0.259 nM
- cAMP Rel EC50, nM (1% HSA) (hGLP-1R): 33.2 nM
- Relative cAMP EC50 [1]: 10.3 nM
- cAMP Rel EC50, nM (1% HSA) [1]: 2270 nM
- Relative cAMP EC50 [2]: 0.0294 nM
- cAMP Rel EC50, nM (1% HSA) [2]: 2.65 nM
